The values below come from US20210130436A1 (published 2021).

Test [1] has as its target T1, CD96 (UniProt P40200 22-585, limits assumed).
T1 construct: whole, on cells
T1 sequence (looked up): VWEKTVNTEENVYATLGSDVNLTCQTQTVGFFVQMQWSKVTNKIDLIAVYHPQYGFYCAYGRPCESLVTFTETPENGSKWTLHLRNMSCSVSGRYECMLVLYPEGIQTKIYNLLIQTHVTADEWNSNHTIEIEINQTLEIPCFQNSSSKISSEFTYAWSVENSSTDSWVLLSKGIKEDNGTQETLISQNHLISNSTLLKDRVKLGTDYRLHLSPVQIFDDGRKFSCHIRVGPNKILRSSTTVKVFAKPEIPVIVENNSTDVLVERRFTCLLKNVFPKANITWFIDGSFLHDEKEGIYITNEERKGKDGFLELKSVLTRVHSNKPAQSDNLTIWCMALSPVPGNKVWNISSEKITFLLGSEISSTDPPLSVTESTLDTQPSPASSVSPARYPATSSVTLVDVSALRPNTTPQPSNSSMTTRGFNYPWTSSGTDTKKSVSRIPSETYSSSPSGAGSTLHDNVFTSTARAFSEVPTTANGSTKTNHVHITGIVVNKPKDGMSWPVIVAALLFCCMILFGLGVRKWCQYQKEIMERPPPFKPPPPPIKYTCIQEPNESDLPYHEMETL
In words: flow cytometry on CD96-expressing cells; reference itself.

Test [2] has as its target T2, TIGIT (Homo sapiens (Human), UniProt Q495A1 23-244).
T2 construct: also called TIGIT tfxn
T2 sequence: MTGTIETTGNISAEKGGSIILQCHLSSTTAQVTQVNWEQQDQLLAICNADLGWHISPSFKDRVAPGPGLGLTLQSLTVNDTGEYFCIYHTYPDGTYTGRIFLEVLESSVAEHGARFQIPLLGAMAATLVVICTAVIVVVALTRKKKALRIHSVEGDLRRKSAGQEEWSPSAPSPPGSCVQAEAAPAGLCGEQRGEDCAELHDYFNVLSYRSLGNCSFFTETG
In words: flow cytometry on TIGIT-transfected Expi293 cells; reference itself. (In general: Flow cytometry measures light scatter and fluorescence of single cells or particles in a stream.)

The target of test [3] is T2, TIGIT. In words: flow cytometry on TIGIT-transfected Expi293 cells.
For test [4], the target named is T1, CD96. In words: flow cytometry on CD96-expressing cells.
The target in test [5] is T3, CD226 (Homo sapiens (Human), UniProt Q15762 19-336).
T3 construct: also called CD226 tfxn
T3 sequence: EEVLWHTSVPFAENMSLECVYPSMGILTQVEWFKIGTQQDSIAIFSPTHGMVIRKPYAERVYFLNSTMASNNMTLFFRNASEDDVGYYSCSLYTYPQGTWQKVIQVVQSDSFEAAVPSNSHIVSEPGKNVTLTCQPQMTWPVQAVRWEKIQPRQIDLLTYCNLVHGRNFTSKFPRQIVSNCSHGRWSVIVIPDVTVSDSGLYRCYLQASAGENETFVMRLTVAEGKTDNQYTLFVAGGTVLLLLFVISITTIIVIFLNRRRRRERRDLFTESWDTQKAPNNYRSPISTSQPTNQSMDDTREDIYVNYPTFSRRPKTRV
In words: flow cytometry on CD226-transfected Expi293 cells; reference itself.

Test [6] concerns the target T3, CD226. In words: flow cytometry on CD226-transfected Expi293 cells.
Test [7] concerns the target T4, TIGIT (UniProt Q495A1 22-244).
T4 construct: whole, on cells
T4 sequence (looked up): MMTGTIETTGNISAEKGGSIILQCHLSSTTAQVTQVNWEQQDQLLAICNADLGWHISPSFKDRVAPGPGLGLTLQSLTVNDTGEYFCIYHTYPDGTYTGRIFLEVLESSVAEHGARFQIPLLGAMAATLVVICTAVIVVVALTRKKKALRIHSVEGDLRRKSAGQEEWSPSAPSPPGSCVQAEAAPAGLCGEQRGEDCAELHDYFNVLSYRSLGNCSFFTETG
In words: flow cytometry on cells expressing TIGIT, Fc fusion at 100 nM.

In test [8] the target is T4, TIGIT. In words: flow cytometry, MFI ratio to wildtype CD155 ECD-Fc, TIGIT cells.
For test [9], the target named is T5, TIGIT (UniProt Q495A1 22-244).
T5 construct: whole, on cells; Expressed on transfected cells
T5 sequence (looked up): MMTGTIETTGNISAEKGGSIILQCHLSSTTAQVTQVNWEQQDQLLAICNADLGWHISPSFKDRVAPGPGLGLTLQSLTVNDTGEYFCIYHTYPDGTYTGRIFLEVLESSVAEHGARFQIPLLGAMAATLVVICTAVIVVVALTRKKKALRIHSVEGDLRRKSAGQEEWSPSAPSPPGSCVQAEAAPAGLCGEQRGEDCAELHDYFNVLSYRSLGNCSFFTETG
In words: flow cytometry, Fc fusion at 25 nM on cells expressing TIGIT.

The target of test [10] is T6, TIGIT (Homo sapiens (Human), UniProt Q495A1 23-244).
T6 construct: Expressed on transfected Expi293 cells; also called TIGIT tfxn
T6 sequence: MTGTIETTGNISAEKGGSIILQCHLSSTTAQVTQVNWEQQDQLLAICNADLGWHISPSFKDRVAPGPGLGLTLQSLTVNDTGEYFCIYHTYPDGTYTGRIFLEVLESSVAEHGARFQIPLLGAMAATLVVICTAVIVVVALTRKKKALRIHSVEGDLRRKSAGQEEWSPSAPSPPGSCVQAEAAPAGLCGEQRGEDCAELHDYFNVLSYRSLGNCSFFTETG
In words: flow cytometry, TIGIT-transfected Expi293 cells.

The target in test [11] is T7, CD226 (Homo sapiens (Human), UniProt Q15762 19-336).
T7 construct: Expressed on transfected cells
T7 sequence: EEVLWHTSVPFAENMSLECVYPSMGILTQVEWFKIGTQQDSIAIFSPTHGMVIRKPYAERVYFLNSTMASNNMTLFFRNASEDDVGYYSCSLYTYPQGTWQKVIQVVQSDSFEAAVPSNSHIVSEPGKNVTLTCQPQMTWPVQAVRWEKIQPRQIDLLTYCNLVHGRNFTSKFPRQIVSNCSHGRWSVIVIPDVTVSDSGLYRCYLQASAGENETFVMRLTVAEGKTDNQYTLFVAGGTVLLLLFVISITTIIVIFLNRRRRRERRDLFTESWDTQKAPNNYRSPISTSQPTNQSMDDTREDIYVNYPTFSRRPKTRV
In words: flow cytometry, CD226-transfected Expi293 cells.

Test [12] has as its target T8, CD96 (UniProt P40200 22-585, limits assumed).
T8 construct: whole, on cells
T8 sequence (looked up): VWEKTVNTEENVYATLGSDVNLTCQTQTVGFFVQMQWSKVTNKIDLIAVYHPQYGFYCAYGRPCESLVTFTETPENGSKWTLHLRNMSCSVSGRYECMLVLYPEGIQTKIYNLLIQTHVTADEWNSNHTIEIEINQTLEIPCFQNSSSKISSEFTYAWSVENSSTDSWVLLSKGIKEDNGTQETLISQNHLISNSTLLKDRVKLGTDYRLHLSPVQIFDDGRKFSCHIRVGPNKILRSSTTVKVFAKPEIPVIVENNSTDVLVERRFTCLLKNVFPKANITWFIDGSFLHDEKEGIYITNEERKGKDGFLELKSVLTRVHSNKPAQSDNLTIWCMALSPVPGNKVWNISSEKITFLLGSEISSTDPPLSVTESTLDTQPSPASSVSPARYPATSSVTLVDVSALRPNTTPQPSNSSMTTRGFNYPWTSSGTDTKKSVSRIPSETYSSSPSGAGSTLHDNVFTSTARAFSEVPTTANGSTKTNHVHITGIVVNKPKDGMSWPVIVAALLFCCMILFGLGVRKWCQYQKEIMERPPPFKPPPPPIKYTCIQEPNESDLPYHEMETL
In words: flow cytometry on cells expressing CD96.

B1: wild-type CD155 IgV-Fc (Fc fusion, not shown: a dimerising Fc or GST)
chain: WPPPGTGDVVVQAPTQVPGFLGDSVTLPCYLQVPNMEVTHVSQLTWARHGESGSMAVFHQTQGPSYSESKRLEFVAARLGAELRNASLRMFGLRVEDEGNYTCLFVTFPQGSRSVDIWLRVL
On to B1, for which the MFI parental ratio with CD96 [1], with TIGIT [2] and in the test with CD226 [5] was 1 fold throughout. Besides, the MFI in the test with TIGIT [3] turned out to be 2720 MFI; with CD96 [4], 3080 MFI; in the test with CD226 [6] it was 3720 MFI.

B2: CD155 IgV Fc (Fc fusion, not shown: a dimerising Fc or GST)
chain: WPPPGTGDVVVQAPTQVPGFLGDSVTLPCYLQVPNMEVTHVSQLTWARHGESGSMAVFHQTQGPSYSESKRLEFVAARLGAELRNASLRMFGLRVEDEGNYTCLFVTFPQGSRSVDIWLRVL
For B2, in the test with TIGIT [7], the “MFI at 100 nM” value came out at 4690 MFI. In the test with TIGIT [8], the “Fold ↑ to WT ECD” value was determined as 0.01 fold.

B3: variant CD155 IgV-Fc V9L/V11M/P18S/N35S/S54G/Q62K/L79P/L104M/T107M/V115M (Fc fusion, not shown: a dimerising Fc or GST)
chain: WPPPGTGDLVMQAPTQVSGFLGDSVTLPCYLQVPSMEVTHVSQLTWARHGESGGMAVFHQTKGPSYSESKRLEFVAARPGAELRNASLRMFGLRVEDEGNYTCMFVMFPQGSRSMDIWLRVL
notes: also called V9L/V11M/P18S/N355/S54G/Q62K/L79P/L104M/T107M/V115M
For B3, the “MFI at 25 nM” value with TIGIT [9] was determined as 3000 MFI.

B4: variant CD112 IgV-Fc S118Y (Fc fusion)
chain: QDVRVQVLPEVRGQLGGTVELPCHLLPPVPGLYISLVTWQRPDAPANHQNVAAFHPKMGPSFPSPKPGSERLSFVSAKQSTGQDTEAELQDATLALHGLTVEDEGNYTCEFATFPKGYVRGMTWLRV
notes: IgV-Fc fusion; not shown: linker and Fc
Turning to B4, the MFI in the test with TIGIT [10] was determined as 2920 MFI; with CD226 [11], 2000 MFI.

B5: CD112 Y33H/N47K/Q79R/N106Y/A112V IgV-Fc (Fc fusion, not shown: a dimerising Fc or GST)
chain: QDVRVQVLPEVRGQLGGTVELPCHLLPPVPGLHISLVTWQRPDAPAKHQNVAAFHPKMGPSFPSPKPGSERLSFVSAKRSTGQDTEAELQDATLALHGLTVEDEGYYTCEFVTFPKGSVRGMTWLRV
Regarding B5, the “MFI at 100 nM” value in the test with CD96 [12] was determined as 1680 MFI.
